The values that follow are results of earlier work, collected in publication PMC5453503.

Several values for one entry are separate records, joined by “and”; a condition that tells them apart may be missing. Equal entries are not always repeated.

In this data set the target is VEGFR2 (Homo sapiens) (UniProt P35968).
Sequence of UniProt P35968 (P35968 20-1356): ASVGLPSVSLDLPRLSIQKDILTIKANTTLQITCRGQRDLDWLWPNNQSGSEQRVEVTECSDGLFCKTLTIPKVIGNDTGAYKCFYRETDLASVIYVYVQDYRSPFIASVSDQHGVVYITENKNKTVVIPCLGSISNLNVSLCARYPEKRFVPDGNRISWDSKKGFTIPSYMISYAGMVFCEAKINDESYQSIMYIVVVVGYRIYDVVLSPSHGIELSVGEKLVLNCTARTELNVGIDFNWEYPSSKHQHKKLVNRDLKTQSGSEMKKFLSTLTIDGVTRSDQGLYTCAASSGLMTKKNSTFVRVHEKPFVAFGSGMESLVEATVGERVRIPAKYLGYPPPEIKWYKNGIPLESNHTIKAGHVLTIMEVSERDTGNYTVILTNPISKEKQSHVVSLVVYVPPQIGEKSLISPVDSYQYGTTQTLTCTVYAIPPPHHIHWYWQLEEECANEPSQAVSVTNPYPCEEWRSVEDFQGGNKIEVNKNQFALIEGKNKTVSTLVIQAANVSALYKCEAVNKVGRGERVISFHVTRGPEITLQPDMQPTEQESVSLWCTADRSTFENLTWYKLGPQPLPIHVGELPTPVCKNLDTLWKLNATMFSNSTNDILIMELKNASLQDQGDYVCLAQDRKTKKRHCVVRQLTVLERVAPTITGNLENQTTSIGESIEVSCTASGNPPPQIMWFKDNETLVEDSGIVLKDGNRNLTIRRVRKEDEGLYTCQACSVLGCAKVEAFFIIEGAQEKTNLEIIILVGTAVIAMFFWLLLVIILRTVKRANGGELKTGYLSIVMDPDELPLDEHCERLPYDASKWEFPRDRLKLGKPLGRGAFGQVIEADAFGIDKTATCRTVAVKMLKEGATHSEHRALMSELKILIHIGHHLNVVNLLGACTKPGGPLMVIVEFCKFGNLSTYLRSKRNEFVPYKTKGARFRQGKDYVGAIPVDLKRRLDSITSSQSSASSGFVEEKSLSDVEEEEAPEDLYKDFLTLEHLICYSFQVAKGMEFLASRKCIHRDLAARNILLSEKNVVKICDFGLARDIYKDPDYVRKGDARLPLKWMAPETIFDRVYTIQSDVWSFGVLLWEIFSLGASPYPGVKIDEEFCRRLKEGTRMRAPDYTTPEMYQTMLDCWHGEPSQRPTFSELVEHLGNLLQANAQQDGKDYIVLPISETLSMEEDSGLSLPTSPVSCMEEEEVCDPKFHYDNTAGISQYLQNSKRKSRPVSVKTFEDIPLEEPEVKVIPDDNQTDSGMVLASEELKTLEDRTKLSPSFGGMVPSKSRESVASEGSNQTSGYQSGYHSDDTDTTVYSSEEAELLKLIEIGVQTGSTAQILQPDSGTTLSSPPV

The term Kd denotes the concentration at which binding is half-saturated. For VEGF165a (from UniProt P15692), the equilibrium dissociation constant (Kd) is 410 pM and 760 pM.
